Laboratory results taken from patent publication US20180282719A1 (published 2018).
Residue numbers refer to the chain shown, from its start. One block for each binder: values may come before it.

Experiments:
[1] = molecular target: T1, recombinant soluble human IL-6 receptor (SR344) (human, UniProt P08887 20-344, biotinylated (sites not given) where immobilized via streptavidin or used in phage ELISA); assay: SPR Biacore T100, biotinylated SR344 on streptavidin chip (model of membrane-type IL-6 receptor), antibody as analyte, bound at pH 7.4, dissociation at pH 7.4, 37 C
T1 construct: also called soluble IL-6 receptor; membrane-type IL-6 receptor (when biotinylated and immobilized on the chip)
T1 sequence (looked up): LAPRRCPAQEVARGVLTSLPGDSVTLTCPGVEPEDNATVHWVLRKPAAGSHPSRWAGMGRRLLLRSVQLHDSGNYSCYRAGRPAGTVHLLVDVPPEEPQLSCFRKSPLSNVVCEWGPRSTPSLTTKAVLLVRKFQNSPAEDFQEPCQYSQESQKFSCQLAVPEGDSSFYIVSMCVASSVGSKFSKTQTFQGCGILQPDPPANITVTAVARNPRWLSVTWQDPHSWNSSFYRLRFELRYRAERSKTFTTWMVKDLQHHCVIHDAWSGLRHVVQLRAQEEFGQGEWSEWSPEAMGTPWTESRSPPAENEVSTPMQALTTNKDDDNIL
Protocol: (§1) Binding to the membrane-type IL-6 receptor was evaluated by evaluating binding to the IL-6 receptor immobilized on a sensor chip. SR344 was biotinylated in accordance with a method known among persons with ordinary skill in the art, and the biotinylated SR344 was immobilized on the sensor chip via streptavidin using the affinity between streptavidin and biotin. All the measurements were carried out at 37° C. The mobile phase buffer was 10 mM MES (pH 5.8), 150 mM NaCl and 0.05% TWEEN® 20 (polyoxyethelene sorbitan monolaurate).
(§2) The pH-dependently-binding clones were injected under the condition of pH 7.4 to allow them to bind to SR344, and then, the pH-dependent dissociation of each clone at the pH of the mobile phase, pH 5.8, was observed. The results are shown in FIG. 21 (results for Fv1-M71, Fv1-M73, Fv3-M71, and Fv3-M73 are shown in FIG. 21, while results for other clones are shown in FIGS. 17 and 19). Analyses were carried out in the same manner as in Example 10 and the pH dependencies of the dissociation rate constants of all of the eleven types of clones are shown in Table 12.

[2] = molecular target: T1, recombinant soluble human IL-6 receptor …; assay: SPR Biacore T100, biotinylated SR344 on streptavidin chip (model of membrane-type IL-6 receptor), antibody as analyte, bound at pH 7.4, dissociation at pH 5.8, 37 C
Protocol: as §1, §2

[3] = molecular target: T1, recombinant soluble human IL-6 receptor …; assay: SPR Biacore T100, biotinylated SR344 on streptavidin chip (model of membrane-type IL-6 receptor), antibody as analyte, 37 C
Protocol: as §1, §2

[4] = molecular target: T1, recombinant soluble human IL-6 receptor …; assay: as above; remark: listed apart in the source
Protocol: as §1, §2

[5] = molecular target: T1, recombinant soluble human IL-6 receptor …; assay: SPR Biacore T100, biotinylated SR344 on streptavidin chip (model of membrane-type IL-6 receptor), antibody as analyte, bound at pH 7.4, dissociation at pH 7.4, 37 C; remark: listed apart in the source
Protocol: as §1, §2

[6] = molecular target: T1, recombinant soluble human IL-6 receptor …; assay: SPR Biacore T100, antibody captured by anti-IgG gamma chain F(ab)2, SR344 analyte, pH 7.4, 37 C
Protocol: (§3) Kinetic analyses of antigen-antibody reactions at pH 7.4 were carried out on the four types of antibodies, i.e., the humanized PM1 antibody (wild type: WT), and […], H3pI/L73-IgG1, Fv2-IgG1, and Fv4-IgG1 constructed in Examples 2 and 10, by using a Biacore T100™ surface plasmon resonance system (GE Healthcare) (buffer: 10 mM MES (pH 7.4), 150 mM NaCl, 0.05% TWEEN® 20 (polyoxyethelene sorbitan monolaurate)). Each antibody was bound on a sensor chip on which an anti-IgG γ chain specific F(ab)₂ (Pierce) was immobilized by amine coupling, and then, SR344 adjusted to a concentration of 9.8 to 40 nM was injected thereto as an analyte. The association to and dissociation from SR344 were observed on a real-time basis for the pH-dependent-binding clones. All the measurements were carried out at 37° C. Association rate constants kₐ (1/Ms) and dissociation rate constants kd (1/s) were calculated using Biacore T100™ Evaluation Software (GE Healthcare), and dissociation constants KD (M) were calculated on the basis of those values (Table 7).
(§4) The association to and dissociation from SR344 were observed on a real-time basis using the same method as Example 10 for the eleven types of antibodies, humanized PM1 antibody (wild type: WT) and H3pI/L73-IgG1, Fv1-M71, Fv1-M73, Fv2-IgG1, Fv3-M71, Fv3-M73, Fv4-IgG1, Fv4-IgG2, Fv4-M58, and Fv4-M73, constructed as described above. The association rate constants kₐ (1/Ms) and dissociation rate constants kd. (1/s) were calculated by analysis in the same manner, and the dissociation constants KD (M) were calculated on the basis of those values (Table 11).

[7] = molecular target: T1, recombinant soluble human IL-6 receptor …; assay: SPR Biacore T100, biotinylated SR344 on streptavidin chip (model of membrane-type IL-6 receptor), antibody as analyte, bound at pH 7.4, dissociation at pH 5.8, 37 C; remark: listed apart in the source
Protocol: as §1, §2

[8] = molecular target: T1, recombinant soluble human IL-6 receptor …; assay: SPR Biacore T100, antibody captured by anti-IgG gamma chain F(ab)2, SR344 analyte, pH 7.4, 37 C; remark: listed apart in the source
Protocol: as §3, §4

[9] = molecular target: T1, recombinant soluble human IL-6 receptor …; assay: SPR Biacore T100, antibody on protein A/G chip, SR344 analyte, pH 5.8, 37 C
Protocol: (§5) Kinetic analysis of antigen-antibody reactions at pH 7.4 and pH 5.8 was carried out using a Biacore T100™ surface plasmon resonance system (GE Healthcare) for the four types of antibodies prepared: WT-IgG1, H54/L28-IgG1, H170/L82-IgG1, and Fv4-IgG1 (buffer: 10 mM MES (pH 7.4 or pH 5.8), 150 mM NaCl, 0.05% Surfactant P20 (polyoxyethelene sorbitan monolaurate)). The antibodies were bound to a sensor chip on which recomb-protein A/G (Pierce) was immobilized by amine coupling, and SR344 adjusted to an appropriate concentration was injected therein as an analyte. The association with and dissociation from SR344 of each type of antibody were observed on a real-time basis. All the measurements were carried out at 37° C. Association rate constants kₐ (1/Ms) and dissociation rate constants kd (1/s) were calculated using Biacore T100™ Evaluation Software (GE Healthcare), and dissociation constants KD (M) were calculated based on those values (Table 17).

[10] = molecular target: T1, recombinant soluble human IL-6 receptor …; assay: SPR Biacore T100, antibody on protein A/G chip, SR344 analyte, pH 7.4, 37 C
Protocol: as §5

[11] = molecular target: T1, recombinant soluble human IL-6 receptor …; assay: SPR Biacore T100, antibody on protein A/G chip, SR344 analyte, 37 C, ratio of pH 5.8 to pH 7.4
Protocol: as §5

- koff [1]: 0.00054 s⁻¹
- koff [2]: 0.0095 s⁻¹
- kd (pH 5.8)/kd (pH 7.4) [3]: 17.6
- kd (pH 5.8)/kd (pH 7.4) [4]: 17.6
- koff [5]: 0.00054 s⁻¹
- Kd [6]: 1.4 nM
- koff [6]: 0.0011 s⁻¹
- kon [6]: 830000 M⁻¹ s⁻¹
- koff [7]: 0.0095 s⁻¹
- Kd [8]: 1.4 nM
- koff [8]: 0.0011 s⁻¹
- kon [8]: 830000 M⁻¹ s⁻¹
B1: Fv4-M58 (antibody)
heavy: QVQLQESGPGLVKPSETLSLTCAVSGHSISHDHAWSWVRQPPGEGLEWIGFISYSGITNYNPSLQGRVTISRDNSKNTLYLQMNSLRAEDTAVYYCARSLARTTAMDYWGEGTLVTVSSASTKGPSVFPLAPSSKSTSGGTAALGCLVKDYFPEPVTVSWNSGALTSGVHTFPAVLQSSGLYSLSSVVTVPSSNFGTQTYTCNVDHKPSNTKVDKTVERKSCVECPPCPAPPVAGPSVFLFPPKPKDTLMISRTPEVTCVVVDVSQEDPEVQFNWYVDGVEVHNAKTKPREEQFNSTFRVVSVLTVVHQDWLNGKEYKCKVSNKGLPAPIEKTISKTKGQPREPQVYTLPPSQEEMTKNQVSLTCLVKGFYPSDIAVEWESNGQPENNYKTTPPMLDSDGSFFLYSKLTVDKSRWQEGNVFSCSVMHEALHNHYTQKSLSLSP
light: DIQMTQSPSSLSASVGDSVTITCQASTDISSHLNWYQQKPGKAPELLIYYGSHLLSGVPSRFSGSGSGTDFTFTISSLEAEDAATYYCGQGNRLPYTFGQGTKVEIERTVAAPSVFIFPPSDEQLKSGTASVVCLLNNFYPREAKVQWKVDNALQSGNSQESVTEQDSKDSTYSLSSTLTLSKADYEKHKVYACEVTHQGLSSPVTKSFNRGEC
notes: VH3-M58 / VL3-CK

- koff [1]: 0.00051 s⁻¹
- koff [2]: 0.0051 s⁻¹
- kd (pH 5.8)/kd (pH 7.4) [3]: 10.1
- kd (pH 5.8)/kd (pH 7.4) [4]: 10.1
- koff [5]: 0.00051 s⁻¹
- Kd [6]: 1.4 nM
- koff [6]: 0.001 s⁻¹
- kon [6]: 750000 M⁻¹ s⁻¹
- koff [7]: 0.0051 s⁻¹
- Kd [8]: 1.4 nM
- koff [8]: 0.001 s⁻¹
- kon [8]: 750000 M⁻¹ s⁻¹
B2: Fv4-M73 (antibody)
heavy: B1 heavy with N432A
light: B1 light
notes: VH3-M73 / VL3-CK

- koff [1]: 0.001 s⁻¹
- koff [2]: 0.018 s⁻¹
- kd (pH 5.8)/kd (pH 7.4) [3]: 17
- kd (pH 5.8)/kd (pH 7.4) [4]: 17
- koff [5]: 0.001 s⁻¹
- Kd [6]: 1.3 nM
- koff [6]: 0.0012 s⁻¹
- kon [6]: 960000 M⁻¹ s⁻¹
- koff [7]: 0.018 s⁻¹
- Kd [8]: 1.3 nM
- koff [8]: 0.0012 s⁻¹
- kon [8]: 960000 M⁻¹ s⁻¹
B3: Fv4-IgG2 (antibody)
heavy: B1 heavy with S133C, K135R, G139E, G140S, S221C, Q266H, Q353R, E417Q
light: B1 light
notes: VH3-IgG2deltaGK / VL3-CK; also called Fv4-IgG2deltaGK

- Kd [9]: 1.1 nM
- koff [9]: 0.0027 s⁻¹
- kon [9]: 2.4e+06 M⁻¹ s⁻¹
- Kd [10]: 1.7 nM
- koff [10]: 0.0014 s⁻¹
- kon [10]: 830000 M⁻¹ s⁻¹
- KD (pH 5.8)/KD (pH 7.4) [11]: 0.7
- kd (pH 5.8)/kd (pH 7.4) [11]: 2
B4: H54/L28-IgG1 (antibody, V domains shown)
VH: QVQLQESGPGLVKPSETLSLTCAVSGYSISDDQAWSWVRQPPGEGLEWIGYISYSGITNYNPSLKGRVTISRDTSKNQFSLKLSSVTAADTAAYYCARSLARTTAMDYWGEGTLVTVSS
VL: DIQMTQSPSSLSASVGDSVTITCQASQDISSYLNWYQQKPGKAPELLIYYGSELHSGVPSRFSGSGSGTDFTFTISSLEAEDAATYYCQQGNSLPYTFGQGTKVEIE
notes: IgG1
